Test results published in patent US6521741.

Target: TLHL

B1: tobacco etch virus (TEV) protease (protein)
chain: GESLFKGPRDYNPISSTICHLTNESDGHTTSLYGIGFGPFIITNKHLFRRNNGTLLVQSLHGVFKVKNTTTLQQHLIDGRDMIIIRMPKDFPPFPQKLKFREPQREERICLVTTNFQTKSMSSMVSDTSCTFPSSDGIFWKHWIQTKDGQCGSPLVSTRDGFIVGIHSASNFTNTNNYFTSVPKNFMELLTNQEAQQWVSGWRLNADSVLWGGHKVFMSKPEEPFQPVKEATQLMNELVYSQ
proteolytic cleavage seen on SDS-PAGE: Incubation of TLHL with the TEV protease in PBS at room temperature or at 4 °C produced therefore, a 19kD band on an SDS-PAGE gel
